Data on two molecules can be found in publication PMC6039445 (Nature Communications, 2018).

Test [1] addresses HA of the Shandong 1993 strain (A/Shandong/9/1993 H3N2), soluble, biotinylated (Influenza A virus A/Shandong/9/1993 …, UniProt H9XM74, strain, biotin (site not stated)). Kind of test: BLI. Particulars: both partners purified.
Test [2] concerns the target HA of the Beijing 1989 strain (A/Beijing/353/1989 H3N2), soluble, biotinylated (Influenza A virus A/Beijing/353/1989 …, UniProt O11283, strain, biotin (site not stated)). Kind of test: BLI. The note with it: both partners purified.

B1: H3v-47 Fab (Fab, V domains shown)
VH: QVQLVQSGAEVKKPGSSVRVSCKASGDTFSSYSITWVRQAPGHGLQWMGGIFPIFGSTNYAQKFDDRLTITTDDSSRTVYMELTSLRLEDTAVYYCARGASKVEPAAPAYSDAFDMWGQGTLVTVSS
VL: DIVMTQSPGTLSLSPGERATLSCRTSQGVSSSYLAWYQQKPGQAPRLLISGSSSRATGIPDRFSGSGSGRDFTLTISRLEPEDSAVYYCQQYATSPTFGQGTRVEIK
Consider B1, for which the binding result in test [1] and in test [2] was “binds” each time.

B2: H3v-47 IgG (antibody, V domains shown)
VH: B1 VH
VL: B1 VL
notes: also called mAb H3v-47; source: human hybridoma cell line, serum-free medium, purified (protein G); copies: 2 + 2
As for B2, the binding result in test [1] and in test [2] was “binds” throughout.
